According to patent US20260250651, “CAS12 PROTEINS AND USES THEREOF” (GUANGZHOU REFORGENE MEDICINE CO., LTD., published 2026):
Numbering of substitutions follows the chain as printed.

Key:
[1] = target: T1, Cas12i-135 (N295R,N260R,G705R,L475R); assay: cell_activity; 293T indels
T1 chain: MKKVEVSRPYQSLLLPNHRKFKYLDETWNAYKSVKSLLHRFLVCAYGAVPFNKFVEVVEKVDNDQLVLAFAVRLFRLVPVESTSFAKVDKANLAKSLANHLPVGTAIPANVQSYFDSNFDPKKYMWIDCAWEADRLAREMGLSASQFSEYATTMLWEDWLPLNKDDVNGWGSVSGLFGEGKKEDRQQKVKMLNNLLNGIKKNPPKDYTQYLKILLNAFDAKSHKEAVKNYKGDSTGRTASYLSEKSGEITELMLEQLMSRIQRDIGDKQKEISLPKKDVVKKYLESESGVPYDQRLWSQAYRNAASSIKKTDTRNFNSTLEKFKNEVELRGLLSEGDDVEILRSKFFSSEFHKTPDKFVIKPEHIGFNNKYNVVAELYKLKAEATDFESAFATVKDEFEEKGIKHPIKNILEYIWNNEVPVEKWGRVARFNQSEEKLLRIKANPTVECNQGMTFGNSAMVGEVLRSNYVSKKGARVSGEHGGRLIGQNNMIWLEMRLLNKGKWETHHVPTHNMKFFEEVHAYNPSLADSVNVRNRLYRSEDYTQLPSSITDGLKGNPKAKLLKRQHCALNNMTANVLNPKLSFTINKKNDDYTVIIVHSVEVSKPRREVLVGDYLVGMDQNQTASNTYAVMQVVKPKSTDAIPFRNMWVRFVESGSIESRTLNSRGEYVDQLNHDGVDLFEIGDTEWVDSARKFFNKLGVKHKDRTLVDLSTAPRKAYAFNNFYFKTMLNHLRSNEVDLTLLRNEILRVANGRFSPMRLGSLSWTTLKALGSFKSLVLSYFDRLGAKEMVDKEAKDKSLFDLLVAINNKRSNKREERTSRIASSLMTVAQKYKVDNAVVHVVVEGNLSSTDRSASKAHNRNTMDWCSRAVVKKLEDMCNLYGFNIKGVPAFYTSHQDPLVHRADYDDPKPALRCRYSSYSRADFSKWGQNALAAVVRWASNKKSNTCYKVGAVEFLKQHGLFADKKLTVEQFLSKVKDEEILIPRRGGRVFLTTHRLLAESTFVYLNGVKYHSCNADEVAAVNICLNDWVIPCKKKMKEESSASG
Method: (§1) Plating: The 293T cell line was plated when the confluence reached 70-80%, and the number of cells seeded in a 24-well plate was 5*10\hat{ }5 cells/well.
(§2) Transfection: After 12-14 hours of plating, transfection was performed. 100 μl of Opti-MEM, 1.5 μl of PEI (Yisheng Bio, Polyethylenimine Linear (PEI) MW25000), 250 ng of the mutant clone plasmid from Example 2, and 250 ng of gRNA plasmid for targeting endogenous genes were added to each well of a 24-well plate. The mixture was incubated at room temperature for 20 minutes and then added to 293T cells for transfection. After transfection overnight, the medium was replaced with fresh medium and cultured for the next period.
(§3) DNA extraction, PCR amplification, and Sanger sequencing: After culturing for 72 hours, cells were washed with PBS, and then 100 μl of cell lysis buffer (Viagen, DirectPCR® Lysis Reagent (Cell)) was added for lysis to obtain a lysate containing genomic DNA. The genomic DNA was amplified in the region near the target sequence, and the PCR product was sent to a sequencing company for Sanger sequencing.

[2] = target: T2, Cas12i-30 (N295R,N260R); assay: cell_activity; 293T indels; editing >10%
T2 chain: T1 chain with R475L, R705G
Method: as §1, §2, §3

B1: gRNA-TTR ; TTR target (ssRNA ; dsDNA)
RNA: AGAGAAUGUGUGCAUAGUCACACCAGUAAGAUUUGGUGUCUAU
DNA 1: CAGTAAGATTTGGTGTCTAT
DNA 2: ATAGACACCAAATCTTACTG
relative indel editing efficiency [1]: 1.73 fold of Cas12i-69
relative indel editing efficiency [2]: 1.89 fold of wild type
